Test results from patent publication CN113880948A.

Target: CA724抗原 (CA724)
Experiment: biolayer interferometry type kinetics, antibody captured on AMQ biosensor, antigen in solution (diluted 10-fold)

Kd	koff	kon	Binder
18 nM	0.00109 s⁻¹	60700 M⁻¹ s⁻¹	抗CA724重组抗体 (recombinant anti-CA724 antibody made in Example 1, expressed in Expi293F cells) (antibody, mouse IgG1, kappa, V domains shown) VH: QVQLQQSDAELVKPGASVKISCKASGYTFTDHAIHWAKQKPEQGLEWIGYISPGNDDIKYNEKFKGKATLTADKSSSTAYMQLNSLTSEDSAVYFCKRSYYGHWGQGTTLTVSS VL: DIQMTQSPASLSVSVGETVTITCRASENIYSNLAWYQQKQGKSPQLLVYAATNLADGVPSRFSGSGSGTQYSLKINSLQSEDFGSYYCQHFWGTPYTFGGGTRLEIKG
16.4 nM	0.000897 s⁻¹	54700 M⁻¹ s⁻¹	抗CA724单克隆抗体 (anti-CA724 monoclonal antibody purified from the hybridoma of Example 1) (antibody, V domains shown) VH: QVQLQQSDAELVKPGASVKISCKASGYTFTDHAIHWAKQKPEQGLEWIGYISPGNDDIKYNEKFKGKATLTADKSSSTAYMQLNSLTSEDSAVYFCKRSYYGHWGQGTTLTVSS VL: DIQMTQSPASLSVSVGETVTITCRASENIYSNLAWYQQKQGKSPQLLVYAATNLADGVPSRFSGSGSGTQYSLKINSLQSEDFGSYYCQHFWGTPYTFGGGTRLEIK
